Source: patent US20180194830A1 (COMMISSARIAT A L ENERGIE ATOMIQUE ET AUX ENERGIES …, published 2018)

Biological target: T1, ILT4-Fc (recombinant ILT4 receptor fused to the Fc part of a human IgG, R&D Biosystems) (human, UniProt Q8N423 22-458)
T1 construct: Bought reagent (R&D); also called ILT4/LILRB2/CD85d; not shown: Fc part of a human IgG
Assay: dimer covalently coated on Bio-Plex beads, ILT4-Fc at 2 µg/ml, PE anti-human IgG, flow cytometry
Experimental: To test the binding to HLA-G receptors ILT2, ILT4, and KIR2DL4, 12 μg of dimers obtained according to example 2 were covalently coated on Bio-Plex-COOH polystyrene beads (Bio-Rad) according to the manufacturer's recommendations. Beads were then resuspended at a concentration of 2000 beads per 50 μl in 1× Luminex assay buffer (Interchim). Recombinant receptors fused to the Fc part of a human IgG (ILT2-Fc, ILT4-Fc, R&D Biosystems) were then added at 2 μg/ml. Beads and receptors were then incubated for 90 minutes in the dark on a shaker before wash twice with 200 μl of 1×PBS, 0.05% Tween. Beads were then resuspended in 50 μl of PBS Luminex assay Buffer containing 2 μl g/ml of Phycoerythrin-conjugated Goat anti Human IgG antibody (Sigma) for 30 minutes in the dark on a rotating shaker. Beads were then washed twice with 200 μl of 1×PBS, 0.05% Tween, and resuspended in 300 μl of 1×PBS.
Fluorescence, indicative of peptide recognition by the receptors was evaluated by flow cytometry performed on an Epics XL Cytometer (Beckman Coulter) using EXPO32 software (Beckman Coulter).

T1 sequence (Q8N423 22-458 limits assumed): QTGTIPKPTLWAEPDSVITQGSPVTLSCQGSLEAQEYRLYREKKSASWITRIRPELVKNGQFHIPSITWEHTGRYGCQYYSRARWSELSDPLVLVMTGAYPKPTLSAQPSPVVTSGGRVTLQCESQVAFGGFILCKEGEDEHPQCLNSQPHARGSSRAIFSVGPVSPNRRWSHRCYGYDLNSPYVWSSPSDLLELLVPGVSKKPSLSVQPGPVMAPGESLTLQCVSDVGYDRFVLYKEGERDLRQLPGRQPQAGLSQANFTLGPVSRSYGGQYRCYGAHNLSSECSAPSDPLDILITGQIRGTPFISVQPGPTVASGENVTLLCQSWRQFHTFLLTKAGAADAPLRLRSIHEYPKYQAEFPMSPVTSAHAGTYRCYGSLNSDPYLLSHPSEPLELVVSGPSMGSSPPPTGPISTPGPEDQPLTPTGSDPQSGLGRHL

binding result: binds
B1: (alpha1-alpha 3)×2 dimer of SEQ ID NO:4 (peptide)
chain: GSHSMRYFSAAVSRPGRGEPRFIAMGYVDDTQFVRFDSDSACPRMEPRAPWVEQEGPEYWEEETRNTKAHAQTDRMNLQTLRGYYNQSEADPPKTHVTHHPVFDYEATLRCWALGFYPAEIILTWQRDGEDQTQDVELVETRPAGDGTFQKWAAVVVPSGEEQRYTCHVQHEGLPEPLMLRWKQ
modifications: intrachain disulfide between cysteines 111 and 167; interchain disulfide bridge between Cysteine 42 of the two monomers
notes: Synthetic disulfide-linked homodimer; in the assay covalently coated on Bio-Plex-COOH polystyrene beads; also called (alpha 3-alpha1)×2; (alpha1-alpha 3)x2
